According to patent publication US20240109968A1 (NEW YORK UNIVERSITY, published 2024):

Molecular target: T1, human galectin-9 CRD2 domain (human, UniProt O00182 227-355, limits assumed)
T1 construct: domain: CRD2; also called human CRD2 domain of galectin-9
Assay: ELISA; antibody titrated over immobilized Galectin-9 CRD2, saturation curve

T1 sequence (O00182 227-355 limits assumed): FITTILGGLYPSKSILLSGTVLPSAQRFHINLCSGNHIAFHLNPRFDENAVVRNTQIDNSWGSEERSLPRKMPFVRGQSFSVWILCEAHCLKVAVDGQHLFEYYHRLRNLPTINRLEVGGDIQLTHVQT

Kd: < 1 nM
B1: anti-Galectin-9 antibody G9.2-17 (IgG4) (antibody, V domains shown)
VH: EVQLVESGGGLVQPGGSLRLSCAASGFTVSSSSIHWVRQAPGKGLEWVAYISSSSGYTYYADSVKGRFTISADTSKNTAYLQMNSLRAEDTAVYYCARYWSYPSWWPYRGMDYWGQGTLVTVSS
VL: DIQMTQSPSSLSASVGDRVTITCRASQSVSSAVAWYQQKPGKAPKLLIYSASSLYSGVPSRFSGSRSGTDFTLTISSLQPEDFATYYCQQSSTDPITFGQGTKVEIKR
notes: Human IgG4 with S228P (EU); also called G9.2-17(Ig4); G9.2-17 hIgG4 Fab Arm Exchange mut
